This is an account of results in patent US20200247855A1 (published 2020).

Among the targets are CCL11_HUMAN (human, UniProt P51671 24-97); CCL13_HUMAN (human, UniProt Q99616 24-98); CCL7_HUMAN (human, UniProt P80098 24-99); CXCL8_HUMAN (human, UniProt P10145 28-99); CXCL1_HUMAN (human, UniProt P09341 35-107).
Assay in all cases: BLI
In another test the target is T1, CCL18_HUMAN (human, UniProt P55774 21-89).
T1 chain: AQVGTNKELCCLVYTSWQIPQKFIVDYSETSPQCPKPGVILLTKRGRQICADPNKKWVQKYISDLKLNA

The target in the next test is T2, CCL21_HUMAN (human, UniProt O00585 24-134).
T2 chain: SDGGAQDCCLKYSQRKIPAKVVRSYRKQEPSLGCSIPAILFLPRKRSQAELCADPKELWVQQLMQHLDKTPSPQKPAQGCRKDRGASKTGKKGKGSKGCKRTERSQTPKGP

Another test concerns the target T3, CCL23_HUMAN (human, UniProt P55773 22-120).
T3 chain: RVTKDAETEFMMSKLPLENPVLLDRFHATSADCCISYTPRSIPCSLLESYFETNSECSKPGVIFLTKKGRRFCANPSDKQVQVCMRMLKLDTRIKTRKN

In the next test the target is T4, CCL3_HUMAN (human, UniProt P10147 24-92).
T4 chain: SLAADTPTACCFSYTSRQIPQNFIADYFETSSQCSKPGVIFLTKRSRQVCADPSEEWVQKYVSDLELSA

The target of another test is T5, CCL19_HUMAN (human, UniProt Q99731 22-98).
T5 chain: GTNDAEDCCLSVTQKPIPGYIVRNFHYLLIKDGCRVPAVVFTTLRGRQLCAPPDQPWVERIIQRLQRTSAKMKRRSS

Another test deals with T6, CCL14_HUMAN (human, UniProt Q16627 22-93).
T6 chain: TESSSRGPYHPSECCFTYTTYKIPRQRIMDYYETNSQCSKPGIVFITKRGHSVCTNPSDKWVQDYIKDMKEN

The next test deals with T7, CCL24_HUMAN (human, UniProt O00175 27-104).
T7 chain: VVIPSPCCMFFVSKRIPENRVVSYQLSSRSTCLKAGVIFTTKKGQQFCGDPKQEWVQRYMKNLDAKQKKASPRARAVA

For another test, the target named is T8, CCL15_HUMAN (human, UniProt Q16663 22-113).
T8 chain: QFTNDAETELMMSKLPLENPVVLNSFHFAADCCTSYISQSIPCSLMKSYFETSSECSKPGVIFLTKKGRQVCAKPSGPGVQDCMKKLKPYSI

The target of another test is T9, CCL3L1_HUMAN (human, UniProt P16619 24-93).
T9 chain: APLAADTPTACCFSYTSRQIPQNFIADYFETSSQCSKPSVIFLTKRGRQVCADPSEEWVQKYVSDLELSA

The next test has as its target T10, CCL27_HUMAN (human, UniProt Q9Y4X3 25-112).
T10 chain: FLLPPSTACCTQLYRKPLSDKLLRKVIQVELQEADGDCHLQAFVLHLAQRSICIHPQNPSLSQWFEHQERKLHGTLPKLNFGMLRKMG

In a further test the target is T11, CCL17_HUMAN (human, UniProt Q92583 24-94).
T11 chain: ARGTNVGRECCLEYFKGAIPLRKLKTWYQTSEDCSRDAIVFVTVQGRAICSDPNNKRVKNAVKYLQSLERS

A further test deals with T12, CCL5_HUMAN (human, UniProt P13501 24-91).
T12 chain: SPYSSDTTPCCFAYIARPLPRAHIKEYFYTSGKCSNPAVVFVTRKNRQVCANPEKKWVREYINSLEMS

A further test deals with T13, CCL8_HUMAN (human, UniProt P80075 24-99).
T13 chain: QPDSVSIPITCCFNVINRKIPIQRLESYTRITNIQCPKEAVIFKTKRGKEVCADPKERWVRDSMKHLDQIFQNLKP

In the next test the target is T14, CCL4_HUMAN (human, UniProt P13236 24-92).
T14 chain: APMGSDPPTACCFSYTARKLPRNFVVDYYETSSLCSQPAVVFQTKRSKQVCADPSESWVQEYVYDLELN

As a reminder, the Kd is the equilibrium constant for the complex coming apart.

Chain of CXCL8_HUMAN (P10145 28-99): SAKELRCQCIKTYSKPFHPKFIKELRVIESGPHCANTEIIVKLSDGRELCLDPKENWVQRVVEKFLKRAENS
Chain of CXCL1_HUMAN (P09341 35-107): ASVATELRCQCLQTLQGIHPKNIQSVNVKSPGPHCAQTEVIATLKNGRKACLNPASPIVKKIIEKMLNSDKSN
Chain of CCL7_HUMAN (P80098 24-99): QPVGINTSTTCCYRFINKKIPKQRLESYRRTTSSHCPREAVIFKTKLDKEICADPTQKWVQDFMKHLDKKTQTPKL
Chain of CCL13_HUMAN (Q99616 24-98): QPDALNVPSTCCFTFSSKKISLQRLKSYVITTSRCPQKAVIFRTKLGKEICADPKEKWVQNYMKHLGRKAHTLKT
Chain of CCL11_HUMAN (P51671 24-97): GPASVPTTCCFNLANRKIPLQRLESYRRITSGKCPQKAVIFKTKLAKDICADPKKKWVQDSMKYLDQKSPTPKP

B1: P1243:G4S:P1156 (designed binder)
chain: RNHTEDNSTEYYDYEEARCACPARHLNNTNGTVLKLLGCHYFCNGTLCTAPDGYPCYNLTAQQVRTLTTYPNTSCAVGVCMKGTCVKNGTMEQCFKTPGGGGSADDDNELFTVQYCGMNCTKDEGGTWTGCTGKKEGCKCYHESGKNYGLCLSTEYTDFSQYGNPSDSEIEAAKPKRSDTLSH
Regarding B1, the Kd was 0.543 nM in the test with CCL18_HUMAN; 53.8 nM with CCL21_HUMAN; 0.632 nM with CCL23_HUMAN; 19.7 nM with CCL11_HUMAN; 16.4 nM with CCL3_HUMAN; 2.92 nM with CCL19_HUMAN. The Kd in the test with CCL14_HUMAN was 1.99 nM; in the test with CCL24_HUMAN it was 16.4 nM; with CCL15_HUMAN, 8.71 nM; with CCL3L1_HUMAN, 4.06 nM; with CCL13_HUMAN, 1.33 nM; in the test with CCL27_HUMAN, 24.4 nM. In addition, the Kd with CCL17_HUMAN came to 3.51 nM; with CCL7_HUMAN it was 49 nM; in the test with CCL5_HUMAN it was 8.95 nM; with CCL8_HUMAN it was 381 nM; with CCL4_HUMAN, 19.4 nM; with CXCL8_HUMAN, 7.63 nM. The same molecule showed a dissociation constant Kd in the test with CXCL1_HUMAN of 17.4 nM.
